Measurements as given in paper PMC9669019, “Molecular basis for integrin adhesion receptor binding to p21-activated kinase 4 (PAK4)” (Communications Biology, 2022).
Values joined by “and” are separate entries in the source; they are usually repeats but may differ in a detail not shown here. Equal entries are not always repeated. Ends that are not written are not given here. helical region = not defined here

Tests used:
PAK4 catalytic domain = molecular target: T1, PAK4 catalytic domain (human, UniProt O96013 286-591); experiment: ITC; Nano-ITC, 25 °C, PBS pH 7.4; 407 µM integrin β5^743–799 in the syringe titrated into 44 or 72 µM PAK4cat in the sample cell; PAK4cat pre-incubated with 5 mM MgCl2 and 1 mM AMP-PNP; 20 injections of 2.5 µL; conditions: both partners purified
T1 construct: the GFP-PAK4-cat of the pull-downs is 302-591; The His tag is cleavable by TEV protease; also called PAK4 kinase domain; source: E. coli BL21-CodonPlus(DE3)RILP, purified (HisTrap, Resource Q, Superdex 200)
T1 sequence (O96013 286-591): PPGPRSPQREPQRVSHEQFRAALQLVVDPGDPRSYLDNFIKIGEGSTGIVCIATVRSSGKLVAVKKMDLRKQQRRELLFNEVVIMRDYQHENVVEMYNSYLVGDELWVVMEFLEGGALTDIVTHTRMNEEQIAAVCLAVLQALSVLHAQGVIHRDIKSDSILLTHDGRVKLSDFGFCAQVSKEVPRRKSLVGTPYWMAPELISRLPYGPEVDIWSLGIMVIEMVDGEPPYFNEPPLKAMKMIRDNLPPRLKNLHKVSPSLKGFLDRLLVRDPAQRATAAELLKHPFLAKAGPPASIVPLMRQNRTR

[1] = molecular target: T2, PAK4 catalytic domain, purified recombinant (PAK4-cat) (human, UniProt O96013 286-591); experiment: cell-based or functional assay
T2 sequence (O96013 286-591): as above

[2] = molecular target: T2, PAK4 catalytic domain, purified …; experiment: pull-down; His-tagged β5 tails on Ni-NTA beads; varying concentrations of purified PAK4-cat in buffer X-T, 2 h, 4 °C; apparent affinity, one-site specific-binding model, three independent experiments; conditions: both partners purified
[3] = molecular target: T2, PAK4 catalytic domain, purified …; experiment: ITC; Nano-ITC, 25 °C, PBS pH 7.4; 407 µM integrin β5 743–799 in the syringe, 44 and 72 µM PAK4cat (pre-incubated with 5 mM MgCl2 and 1 mM AMP-PNP) in the cell; 20 injections of 2.5 µL; conditions: both partners purified

B1: 6xHis integrin β5 full-length cytosolic peptide (residues 743–799) (domain or fragment, UniProt P18084 743-799, looked up)
chain: KLLVTIHDRREFAKFQSERSRARYEMASNPLYRKPISTHTVDFTFNKFNKSYNGTVD
modifications: also: 6xHis tag, position not given here
notes: also called integrin β5 cytoplasmic tail
With B1 the Kd (PAK4 catalytic domain) was 5.1 µM and 4.8 µM and the “stoichiometry N” value (PAK4 catalytic domain) was 1.4 and 0.7.

Ac-ERSRARYEMAS-NH2 [integrin β5 peptide, residues Glu760-Ser770] was tested, and the “inhibition of PAK4 phosphorylation of a LIMK1 10mer peptide (…, 50 µM) in a radioactive in vitro kinase assay, β5 peptide 0–1024 µM, 1 mg/ml BSA: IC50” value [1] was 160 µM.

B2: His-tagged recombinant model of the integrin β5 cytoplasmic tail (domain or fragment)
chain: {His‑tag-helical region-Gly4}-KLLVTIHDRREFAKFQSERSRARYEMASNPLYRKPISTHTVDFTFNKFNKSYNGTVD
modifications: not fully specified; reading uncertain
For B2, the Kd [2] was ~1.8 µM.

B3: 6xHis integrin β5 full-length cytosolic peptide (residues 743–799) (domain or fragment, UniProt P18084 743-799, looked up)
chain: B1 chain
modifications: also: 6xHis tag, position not given here
notes: subcloned into a pET32 vector
For B3, the Kd [3] was 4.95 ± 1.5 µM, the dH [3] was -2.02 ± 0.179 kcal/mol and the “stoichiometry N” value [3] was 1.05 ± 0.35.
